Assay results published in patent US20260115250A1 (published 2026).

B1: T-115 (peptide)
peptide: DHINKVQRKVTHEIERLFLGQSTEELRVRLASHLRKLRKRLLRDADDLQKRLAVYQA
B2: T-111 (peptide)
peptide: HLRKLVKRLLRSLVSQYRQTVTDYGEDL
B3: T-118 (peptide)
peptide: LVARLLKELTAAMARLGRDAEDIRGNLFQYFDEVWAMLGQSTEELRVRLASHLRKLRKRLLRDADDLQKRLAVYQA
B4: T-074 (peptide)
peptide: EELRVRLASHLRKLRKRLLR
B5: T-068 (peptide)
peptide: MEDVRGRLVQYRGEVQAMLGQSTEELRVRLASHLRKLRKRLLRDADDLQKRLAVYQA
B6: T-070 (peptide)
peptide: LVQYRGEVQAMLGQSTEELRVRLASHLRKLRKRLLRDADDLQKRLAVYQA
B7: LDLR (receptor)
chain: not shown
B8: T-069 (peptide)
peptide: VRGRLVQYRGEVQAMLGQSTEELRVRLASHLRKLRKRLLRDADDLQKRLAVYQA
B9: T-049 (peptide)
peptide: LARHLRKLRKRLARDGDKLQDRLAEYQARAKEAFDR
B10: T-048 (peptide)
peptide: LASHLRKLRKRLLRDGDKLQDRLAEYQARAKEAFDR
B11: T-116 (peptide)
peptide: DAWERFRALFKELADYFRLGQSTEELRVRLASHLRKLRKRLLRDADDLQKRLAVYQA
B12: T-087 (peptide)
peptide: DAWERFRALFKELADYFR
B13: T-072 (peptide)
peptide: LASHLRKLRKRLLR
B14: T-112 (peptide)
peptide: YKDFGERVERALGRQLEMLGQSTEELRVRLASHLRKLRKRLLRDADDLQKRLAVYQA
B15: T-114 (peptide)
peptide: LKDFGERVARALREQFEDLGQSTEELRVRLASHLRKLRKRLLRDADDLQKRLAVYQA
B16: T-113 (peptide)
peptide: WKDFGERVERALREQFEDLGQSTEELRVRLASHLRKLRKRLLRDADDLQKRLAVYQA
B17: T-044 (peptide)
peptide: LASHLRKLRKRLLRDADDLQKRLAVYQA
B18: T-110 (peptide)
peptide: HLRKLRKRLLRSLVSQYRQTVTDYGKDL
B19: T-109 (peptide)
peptide: HLRKLRKRLLRSLVSQYFQTVTDYGKDL
B20: T-117 (peptide)
peptide: RSGADALESALKELKRFIREWTLGQSTEELRVRLASHLRKLRKRLLRDADDLQKRLAVYQA
B21: T-066 (peptide)
peptide: LARHLRKLRKRLARSLVSQYFQTVTDYGKDLM
B22: T-065 (peptide)
peptide: LASHLRKLRKRLLRSLVSQYFQTVTDYGKDLM
B23: T-120 (peptide)
peptide: DVKRLLKELTEAMAELARKAEDIRGNLDQYFRKVFAMLGQSTEELRVRLASHLRKLRKRLLRDADDLQKRLAVYQA
B24: T-101 (peptide)
peptide: RSGADALESALKELKRFIREWT
B25: T-052 (peptide)
peptide: HLRKLRKRLLRDGDKLQKRLAEYQARAKEAFDR
B26: T-059 (peptide)
peptide: HLRKLVKRLFRDGDKLQDRLAEYQARAKEAFDR
B27: T-064 (peptide)
peptide: HLRKLRKRLLRDADDLQKRLAEYQARAKEAFDR
B28: T-040 (peptide)
peptide: HLRKLRKRLLRDGDKLQDRLAEYQARAKEAFDR
B29: T-055 (peptide)
peptide: HLRKLRKRLLRDGDKLQDRLAEYQARAREAFDR
B30: T-041 (peptide)
peptide: HLRRLRRRLLRDGDKLQDRLAEYQARAKEAFDR
B31: T-062 (peptide)
peptide: HLRKLRKRLLRDGDKLYDRLAEYYARAKEAFDR
B32: T-046 (peptide)
peptide: LASHLRKLRKRLLRDADDLQKRLAVYQAGAREGAER
B33: T-047 (peptide)
peptide: LARHLRKLRKRLARDADDLQKRLAVYQAGAREGAER

Experiments:
[1] = target: T1, Low Density Lipoprotein Receptor (LDLR), recombinant (UniProt P01130 22-788); assay: SPR; HBS + 0.005% P20, peptide
[2] = target: T1, Low Density Lipoprotein Receptor …; assay: SPR; HBS + 0.005% P20, DMPC complex
[3] = target: T1, Low Density Lipoprotein Receptor …; assay: SPR; HBS + 0.05% P20
[4] = target: T1, Low Density Lipoprotein Receptor …; assay: SPR; HBS + 0.005% P20, DMPC complex; remark: listed apart in the source
[5] = target: T1, Low Density Lipoprotein Receptor …; assay: SPR; HBS + 0.005% P20, peptide; remark: listed apart in the source
T-071 = assay: SPR; HBS + 0.005% P20, DMPC complex
T-119 = assay: SPR; HBS + 0.005% P20, peptide
T-053 = assay: SPR; HBS + 0.05% P20
T-060 = assay: SPR; HBS + 0.05% P20
T-050 = assay: SPR; HBS + 0.05% P20
T-077 = assay: SPR; HBS + 0.005% P20, DMPC complex

Row | Binder | Kd [1] [µM] | Kd [2] [µM] | Kd [3] [µM] | Kd [4] [µM] | Kd [5] [µM] | further results
1 | B1 | 0.42 | 0.21 | 2.81 | – | – | –
2 | B2 | 2.98 | 0.46 | 1.06 | – | – | –
3 | B3 | 0.32 | 94.3 | 2.72 | – | – | –
4 | B4 | 2.37 | 77 | 2.43 | – | – | –
5 | B5 | – | – | 1.98 | 0.66 | 1.48 | –
6 | B6 | – | – | – | 0.68 | 1.38 | –
7 | B7 | – | – | – | – | – | Kd (T-071): 348 µM; Kd (T-119): 2.31 µM; Kd (T-053): 122 µM; Kd (T-060): 150 µM; Kd (T-050): 528 µM; Kd (T-077): 189 µM
8 | B8 | – | – | 2.39 | 0.56 | 1.12 | –
9 | B9 | – | – | 3.26 | – | – | –
10 | B10 | – | – | 5.24 | 666 | – | –
11 | B11 | 4.53 | 0.28 | 1.21 | – | – | –
12 | B12 | 2.27 | – | – | – | – | –
13 | B13 | 8.27 | – | 4.85 | – | – | –
14 | B14 | 1.14 | 0.17 | 0.72 | – | – | –
15 | B15 | 2.7 | 0.17 | 1.27 | – | – | –
16 | B16 | 1.44 | 0.29 | 1.82 | – | – | –
17 | B17 | – | – | 7.97 | 1160 | – | –

Row | Binder | Kd [1] [µM] | Kd [2] [µM] | Kd [3] [µM] | Kd [4] [µM] | Kd [5] [µM] | further results
18 | B18 | 2.97 | 1.2 | 1.15 | – | – | –
19 | B19 | 3.15 | 1.05 | 1.2 | – | – | –
20 | B20 | 0.4 | 0.01 | 4.49 | – | – | –
21 | B21 | – | – | 2.42 | 0.11 | 2.06 | –
22 | B22 | – | – | 0.75 | 0.18 | 1.07 | –
23 | B23 | 0.8 | – | 11.8 | – | – | –
24 | B24 | 11.7 | – | – | – | – | –
25 | B25 | – | – | 1.75 | 202 | 1.18 | –
26 | B26 | – | – | 7.27 | – | 7.72 | –
27 | B27 | – | – | 6.81 | – | – | –
28 | B28 | – | – | 5.54 | – | 882 | –
29 | B29 | – | – | 5.09 | – | – | –
30 | B30 | – | – | 7.49 | – | 701 | –
31 | B31 | – | – | 2.23 | 52.9 | 9.36 | –
32 | B32 | – | – | 3.56 | 56.3 | 6.72 | –
33 | B33 | – | – | 3.26 | – | – | –
